Measurements reported in PMC3167817, “A Neutralizing RNA Aptamer against EGFR Causes Selective Apoptotic Cell Death”.

Assays:
[1] = target: EC-EGFR (soluble extracellular domain), disulfide-linked homodimer (human, UniProt P00533 25-645); assay: filter binding; Filter binding: 1 nM radiolabeled RNA, PBS + 0.01% BSA, 15 min, 37 C (5 mM DTT for monomer); CL4sc background subtracted; pull-down: 200 nM aptamer on A549 cells 30 min RT, lysis in 10 mM Tris-HCl pH 7.5, 200 mM NaCl, 5 mM EDTA, 0.1% Triton X-100; conditions: protein: commercial, chain copies: 2
[2] = target: EC-ErbB3 (soluble extracellular domain), disulfide-linked homodimer (human, UniProt P21860 20-643); assay: filter binding; 20 and 40 nM protein; Filter binding: 1 nM radiolabeled RNA, PBS + 0.01% BSA, 15 min, 37 C (5 mM DTT for monomer); CL4sc background subtracted; pull-down: 200 nM aptamer on A549 cells 30 min RT, lysis in 10 mM Tris-HCl pH 7.5, 200 mM NaCl, 5 mM EDTA, 0.1% Triton X-100; conditions: protein: commercial, chain copies: 2
Chain of EC-ErbB3 (soluble extracellular domain), disulfide-linked homodimer (P21860 20-643): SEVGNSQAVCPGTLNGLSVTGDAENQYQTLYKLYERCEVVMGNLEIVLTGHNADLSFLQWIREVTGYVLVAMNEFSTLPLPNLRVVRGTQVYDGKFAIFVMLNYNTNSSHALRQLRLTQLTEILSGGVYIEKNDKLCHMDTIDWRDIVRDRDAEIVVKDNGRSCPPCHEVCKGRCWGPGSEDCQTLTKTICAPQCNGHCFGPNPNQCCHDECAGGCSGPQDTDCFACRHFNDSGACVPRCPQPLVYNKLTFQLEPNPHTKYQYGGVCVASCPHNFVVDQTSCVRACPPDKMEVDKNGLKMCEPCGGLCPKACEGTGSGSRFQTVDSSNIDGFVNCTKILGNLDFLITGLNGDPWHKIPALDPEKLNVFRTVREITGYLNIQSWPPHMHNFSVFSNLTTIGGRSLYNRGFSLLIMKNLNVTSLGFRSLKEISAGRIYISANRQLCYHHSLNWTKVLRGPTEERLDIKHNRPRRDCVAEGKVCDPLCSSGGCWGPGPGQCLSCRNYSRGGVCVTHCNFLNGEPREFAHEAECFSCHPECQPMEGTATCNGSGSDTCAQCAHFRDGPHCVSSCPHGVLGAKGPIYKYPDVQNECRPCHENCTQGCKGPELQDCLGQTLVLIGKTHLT

Question: Which Kd [1] does the source give for GCCUUAGUAACGUGCUUUGAUGUCGAUUCGACAGGAGGC (structured_RNA, 2'-fluoro pyrimidines) [CL4] here?
Answer: Its Kd is 10 nM.

Question: Does GCCUUAGUAACGUGCUUUGAUGUCGAUUCGACAGGAGGC (structured_RNA, 2'-fluoro pyrimidines) [CL4] bind [2]?
Answer: Result: no binding
